The record followed here is patent US20130137856A1, “PROTEIN BINDING DOMAINS STABILIZING FUNCTIONAL CONFORMATIONAL STATES OF GPCRS AND USES THEREOF” (priority 2010, published 2013).

“Also recorded” adds a separate entry of the source.

Data set [1] concerns the target T1, β2AR (Homo sapiens, UniProt P07550). The data set can be described thus: [3H]-DHA competition binding on Sf9 insect cell membranes expressing β2AR, with or without nanobody. More on the design: recombinant β2AR truncated at Gly365 (β2AR-365); made in house; host or cells: Sf9 insect cells (membranes). The conditions noted are these: agonist competition binding with versus without nanobody. From the text: Panel b: Dose-response competition binding experiments on Sf9 insect cell membranes expressing β2AR.

Data set [2] addresses T1, β2AR. In words: Monobromobimane (mBBr) fluorescence of labeled purified β2AR. In kind it is biochemical. As to conditions: 1 μM nanobody plus full agonist isoproterenol. From the text: To investigate the effect of nanobodies on movement of the cytoplasmic domain of TM6 we labeled purified β2AR at C265 with monobromobimane (mBB-β2AR). […] In mBB-β2AR, the addition of agonist together with G protein results in larger fluorescent changes than either agonist or G protein alone. This is compatible with the cooperative interactions observed in agonist competition binding assays (Yao et al. 2009).
Purified β2AR was reacted with 1:1 equivalent of monobromobimane (mBBr, Invitrogen) in 100 mM NaCl, 20 mM HEPES, pH 7.5, 0.1% dodecyl maltoside and incubated overnight on ice in the dark. The fluorophore-labeled receptor was purified right before use by gel filtration on a desalting column equilibrated with the same buffer. […] All experiments were performed at 25° C. […] To determine the effect of nanobodies and ligands, three individual labeled protein samples were incubated with 1 μM nanobody or 10 μM Isoproterenol or both. Emission spectra of the samples were taken after 1 hour incubation.

Data set [3] has as its system β2AR. In words: Size exclusion chromatography of nanobody with purified detergent-solubilized β2AR. The format is binding, human. The conditions noted are these: 20 μM β2AR bound to an agonist, 40 μM nanobody. The method, then:
The mixture was then analyzed by Size Exclusion Chromatography (SEC), which separates protein on the basis of size. Seven of the nanobodies bound to purified β2AR and migrated as a complex on SEC only in the presence of agonist and not an inverse agonist (an example is shown in FIG. 1, Panel a, FIG. 3 and FIG. 4).
Agonist selective nanobodies were identified by size exclusion chromatography following incubation of 20 μM agonist or inverse agonist- (carazolol-) bound β2AR-365N for one hour at RT in the absence or presence of 40 μM nanobody.
(Size exclusion chromatography separates by hydrodynamic size, large species first.)

B1: NB65: β2AR-specific nanobody, SEQ ID NO:5 (protein, listed as Lama glama)
VHH: QVQLQESGGGLVQAGGSLRLSCAASGSIFSINTMGWYRQAPGKQRELVAAIHSGGSTNYADSVRGRFTISRDNAKNTVYLQMNSLKPEDTAVYYCNVKDYGAVLYEYDYWGQGTQVTVSS
For the molecule B1, the “Enhancement of β2AR affinity for the agonist isoproterenol in the presence of the nanobody” value (“Enhancement of β2AR affinity” for short) in the data set with β2AR [1] is recorded as “two- to thirty-fold”. In addition, the “mBBr fluorescence change of isoproterenol-bound β2AR with nanobody (active state)” value with β2AR [2] (listed as 65) is “Comparable results; also recorded: stabilize a more active state”. Also, the “Complex formation with agonist-bound β2AR on SEC” value with β2AR [3] is given as “complex formation”.

B2: NB72: β2AR-specific nanobody, probably CA2772, SEQ ID NO:24; CA3472 carries the same short notation (protein, listed as Lama glama)
VHH: QVQLQESGGGLVQPGGSLRLSCAASGFTFSGYAMNWVRQAPGKGPEWVSAINSGGGSTSYADSVKGRFTISRDNAKNTVYLQMNSLKPEDTAVYYCHARDIYSDFLGQYEYDYWGQGTQVTVSS
With B2, in the data set with β2AR [1], the “Enhancement of β2AR affinity” value is “two- to thirty-fold”. For the same molecule, the “mBBr fluorescence change of isoproterenol-bound β2AR with nanobody (active state)” value with β2AR [2] (listed as 72) is “Comparable results; also recorded: stabilize a more active state”. In the data set with β2AR [3], the “Complex formation with agonist-bound β2AR on SEC” value is listed as “complex formation”.

B3: NB84: β2AR-specific nanobody, probably CA2784, SEQ ID NO:29; CA3484 carries the same short notation (protein, listed as Lama glama)
VHH: QVQLQESGGGLVQAGGSLRLSCAASGSIFSINAMGWYRQAPGKQRELVAAITSGGSTTYADSVKGRFTVSRDNAKNTVYLQMIRLKPEDTAVYYCHVRDIYSDFLGQYEYDYWGQGTQVTVSS
Regarding B3, the “Enhancement of β2AR affinity” value with β2AR [1] was “two- to thirty-fold”. The “mBBr fluorescence change of isoproterenol-bound β2AR with nanobody (active state)” value with β2AR [2] (listed as 84) is reported as “Comparable results; also recorded: stabilize a more active state”. Further, in the data set with β2AR [3], the “Complex formation with agonist-bound β2AR on SEC” value was “complex formation”.

B4: NB69: β2AR-specific nanobody, SEQ ID NO:26 (protein, listed as Lama glama)
VHH: QVQLQESGGGLVQPGGSLRLSCAASGSIFSINAMGWYRQAPGKQRDLVASITSGGSTNYADSVKGRFTISRDNAKNTVYLQMNSLKPEDTAVYYCNVQGTGPSSWLFNEYDYWGQGTQVTVSS
For B4, the “Enhancement of β2AR affinity” value with β2AR [1] is on record as “two- to thirty-fold”. The “mBBr fluorescence change of isoproterenol-bound β2AR with nanobody (active state)” value with β2AR [2] (listed as 69) is recorded as “Comparable results; also recorded: stabilize a more active state”. The “Complex formation with agonist-bound β2AR on SEC” value in the data set with β2AR [3] is on record as “complex formation”.

B5: NB71: β2AR-specific nanobody, SEQ ID NO:25 (protein, listed as Lama glama)
VHH: QVQLQESGGGLVQPGGSLRLSCAASGFAFSSYELRWYRQAPGKQHELVAGITTGGNTYYADSVKGRFTISRDNAKNTVYLQMSNLRPEDTAVYACNANWDLLSDYWGQGTQVTVSS
Regarding B5, the “Enhancement of β2AR affinity” value with β2AR [1] is “two- to thirty-fold”. The “mBBr fluorescence change of isoproterenol-bound β2AR with nanobody (active state)” value with β2AR [2] (listed as 71) is “Comparable results; also recorded: stabilize a more active state”. Moreover, the “Complex formation with agonist-bound β2AR on SEC” value with β2AR [3] was “complex formation”.

B6: NB67: β2AR-specific nanobody, SEQ ID NO:20 (protein, listed as Lama glama)
VHH: QVQLQESGGGLVQAGGSLRLSCAASGTISSFIAMGWYRQSPGKQRELVAGITSGGETNYEDSVKGRFTISRDNAKNTLYLQMNTLKPEDTAVYYCNAQVFADIFNLINYWGQGTQVTVSS
Take B6: in the data set with β2AR [1], the “Enhancement of β2AR affinity” value is “two- to thirty-fold”. Besides, the “mBBr fluorescence change of isoproterenol-bound β2AR with nanobody (active state)” value in the data set with β2AR [2] (listed as 67) is on record as “Comparable results; also recorded: stabilize a more active state”. Besides, the “Complex formation with agonist-bound β2AR on SEC” value in the data set on β2AR [3] is on record as “complex formation”.
